Numbered stars: 1 amine (or outer) side, 2 acyl side, 3 side chain; on linkers, the order of the positions; unused ones are H or OH. Bridge positions count the residues as written; N and C are the ends. Square brackets hold non-standard residues; d marks the D form. Ends that are not written are not given here. * marks the point of attachment. mXylyl = xylyl linker from dibromoxylene joining the two cysteines; Phe(3-CH2NH2) = O=C([C@H](Cc1cccc(CN[*:3])c1)N[*:1])[*:2]; Ala(1H-tetrazol-5-yl) = N[C@@H](Cc1nnn[nH]1)C(=O)O; des‑NH2 = missing amino-terminal amine group; Phe(4-CH2NH2) = NCc1ccc(C[C@H](N)C(=O)O)cc1; hexyltetrazolyl‑mXylyl = not defined here; η‑ω‑MeR = eta-omega methylated arginine; pXylylene = c1cc(C[*:2])ccc1C[*:1]; NMeE = CN[C@@H](CCC(=O)O)C(=O)O; Gly(cPr) = N[C@H](C(=O)O)C1CC1; dPhg = N[C@@H](C(=O)O)c1ccccc1; Chg = N[C@H](C(=O)O)C1CCCCC1; Pen = CC(C)(S)[C@H](N)C(=O)O; Phg = N[C@H](C(=O)O)c1ccccc1; Tle = CC(C)(C)[C@H](N)C(=O)O; hLys = NCCCCC[C@H](N)C(=O)O; oXylyl = ortho-xylyl linker; mLutidine = meta-lutidine; Heptanoyl = CCCCCCC(=O)*; Nle = CCCC[C@H](N)C(=O)O; Nva = CCC[C@H](N)C(=O)O; Mpa = O=C(O)CCS; Sar = CNCC(=O)O
Biological target: Activated human plasma kallikrein (Enzyme Research Laboratories, HPKa 1303) (human, UniProt P03952 20-638)
Experiment: cell-based or functional assay

Sequence of Activated human plasma kallikrein (Enzyme Research Laboratories, HPKa 1303) (P03952 20-638 limits assumed): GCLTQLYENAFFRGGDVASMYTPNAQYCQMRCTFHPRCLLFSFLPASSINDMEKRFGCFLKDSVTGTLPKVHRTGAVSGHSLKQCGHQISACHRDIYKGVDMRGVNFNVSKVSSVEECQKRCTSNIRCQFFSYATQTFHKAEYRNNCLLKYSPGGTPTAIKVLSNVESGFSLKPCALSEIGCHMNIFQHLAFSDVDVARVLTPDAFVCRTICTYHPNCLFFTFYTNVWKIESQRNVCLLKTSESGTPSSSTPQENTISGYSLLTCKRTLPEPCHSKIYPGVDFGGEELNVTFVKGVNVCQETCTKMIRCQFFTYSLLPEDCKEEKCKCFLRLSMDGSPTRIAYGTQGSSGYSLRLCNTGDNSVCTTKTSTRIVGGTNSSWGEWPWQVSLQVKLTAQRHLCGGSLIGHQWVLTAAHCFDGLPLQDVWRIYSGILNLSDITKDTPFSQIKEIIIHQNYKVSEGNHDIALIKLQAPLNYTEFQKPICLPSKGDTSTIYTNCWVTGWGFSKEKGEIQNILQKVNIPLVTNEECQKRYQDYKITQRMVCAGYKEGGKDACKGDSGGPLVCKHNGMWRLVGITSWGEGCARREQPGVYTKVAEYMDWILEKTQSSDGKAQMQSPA

Avg. IC50 [nM]	Binder
11	Ac-MCES[Chg]CRV-NH2 (linker 2-6 via mXylyl) [R2050]
645	MCESICRV-NH2 (linker 2-6 via mLutidine) [R2044]
959	Ac-C[dA]S[dPhg]CR[Tle]-NH2 (linker 1-5 via mXylyl) [R2060]
29.5	Ac-CAP[Phg]CR[Tle]-NH2 (linker 1-5 via mXylyl) [R2058]
733	MCESICKV-NH2 (linker 2-6 via mXylyl) [R2040]
74.2	Ac-CA[Sar][Phg]CR[Tle]-NH2 (linker 1-5 via mXylyl) [R2052]
2470	Ac-CAS[Gly(cPr)]CRV-NH2 (linker 1-5 via mXylyl; not fully specified (residue 2); printed as [mXylyl(1,5)]Ac-C-a-S-Cppg-CRV-NH2) [R2062]
11.9	CAS[Phg]CR[Tle]-NH2 (linker 1-5 via mXylyl) [R2039]
425	Ac-CASFCR[Tle]-NH2 (linker 1-5 via mXylyl) [R2059]
187	Ac-CESICRVL-NH2 (linker 1-5 via mXylyl) [R2045]
2.2	Ac-CESICRVLRY-NH2 (linker 1-5 via mXylyl) [R2055]
0.943	Ac-CESICRVLRYSE-NH2 (linker 1-5 via mXylyl) [R2057]
4370	Heptanoyl-CAS[dPhg]CR[Tle]-NH2 (linker 1-5 via mXylyl; not fully specified (residue 2); printed as [mXylyl(1,5)]Heptanoyl-C-a-S-(D)Phg-C-R-Tbg-NH2) [R2066]
16300	{des‑NH2}-CICRV-NH2 (linker 1-3 via mXylyl; not fully specified (residue 1); printed as [mXylyl(1,3)](des-NH2)C-ICRV-NH2) [R2049]
39.7	MCESICRV-NH2 (linker 2-6 via 3‑methoxy‑mXylyl) [R2102]
299	Ac-CESICRVLK-NH2 (linker 1-5 via mXylyl) [R2038]
151	Ac-CASVCRV-NH2 (linker 1-5 via mXylyl; not fully specified (residue 2); printed as [mXylyl(1,5)]Ac-C-a-SVCRV-NH2) [R2063]
19.1	Heptanoyl-CAS[Phg]CR[Tle]-NH2 (linker 1-5 via mXylyl; not fully specified (residue 2); printed as [mXylyl(1,5)]Heptanoyl-C-a-S-Phg-C-R-Tbg-NH2) [R2067]
59.3	Ac-CESICRVLR-NH2 (linker 1-5 via mXylyl) [R2046]
14.9	[Mpa][code a]S[Phg]CR[Tle]-NH2 (linker 1-5 via mXylyl) [R2064]
5340	Ac-CAS[Phg]C[Phe(4-CH2NH2)][Tle]-NH2 (linker 1-5 via mXylyl) [R2053]
6.1	Ac-C[Nle]S[Phg]CR[Tle]-NH2 (linker 1-5 via mXylyl) [R2065]
1400	Ac-CAS[Tle]CR[Tle]-NH2 (linker 1-5 via mXylyl) [R2048]
1.9	Ac-CESICRVLRYS-NH2 (linker 1-5 via mXylyl) [R2056]
5000	Ac-[Nva]CESIC[η‑ω‑MeR]V-NH2 (linker 2-6 via mXylyl) [R2054]
3190	MCESICRV-NH2 (linker 2-6 via oXylyl) [R2042]
617	MCESICRV-NH2 (linker 2-6 via pXylylene) [R2043]
12.7	Ac-CAS[Phg]CR[Tle]-NH2 (linker 1-5 via mXylyl; not fully specified (residue 2); printed as [mXylyl(1,5)]Ac-C-a-S-Phg-CR-Tbg-NH2) [R2061]

Continued, binder first:

Binder	Avg. IC50 [nM]
[Nva]CESIC[hLys]V-NH2 (linker 2-6 via mXylyl) [R2029]	8840
MCESICRV-NH2 (linker 2-6 via trans‑butenyl) [R2011]	12800
[Nva]CESIC[Phe(3-CH2NH2)]V-NH2 (linker 2-6 via mXylyl) [R2022]	21000
MC[NMeE]ESICRV-NH2 (linker 2-7 via mXylyl; not fully specified; printed as [mXylyl(2,6)]MC-nMeE-ESICRV-NH2) [R2027]	990
[Nva]CESICRF-NH2 (linker 2-6 via mXylyl) [R2035]	7200
MCESICRV-NH2 (cysteine pairing not given here) [R2007]	2000
MCESICRA-NH2 (linker 2-6 via mXylyl) [R2016]	3900
MCESICRVN-NH2 (linker 2-6 via mXylyl) [R2014]	37.5
ACESICRV-NH2 (linker 2-6 via mXylyl) [R2025]	9.5
MCASICRV-NH2 (linker 2-6 via mXylyl) [R2024]	41.9
MCESICR-NH2 (linker 2-6 via mXylyl) [R2015]	16500
[Nva]CESIC[Phe(4-CH2NH2)]V-NH2 (linker 2-6 via mXylyl) [R2021]	2000
Ac-[Nva]CESIC[hLys]V-NH2 (linker 2-6 via mXylyl) [R2033]	8650
[Nva]CESI[Pen]RV-NH2 (linker 2-6 via mXylyl) [R2032]	1030
[Nva]CES[Phg]CR[Tle]-NH2 (linker 2-6 via mXylyl) [R2013]	6.8
Ac-CSICRV-NH2 (linker 1-4 via mXylyl) [R2037]	410
MCEAICRV-NH2 (linker 2-6 via mXylyl) [R2018]	37.3
MCETICRVLKYSD-NH2 (linker 2-6 via mXylyl) [R2005]	1.8
MC[Ala(1H-tetrazol-5-yl)]SICRV-NH2 (linker 2-6 via mXylyl) [R2020]	13
MCESICRV-NH2 (linker 2-6 via hexyltetrazolyl‑mXylyl; reading uncertain; also: printed as [hexyltetrazolyl-mXylyl(2,6)]MCESICRV-NH2) [R2028]	714
MCESACRV-NH2 (linker 2-6 via mXylyl) [R2017]	2140
[Nva][Pen]ESI[Pen]RV-NH2 (linker 2-6 via mXylyl) [R2034]	> 100000
[Nva][Pen]ESICRV-NH2 (linker 2-6 via mXylyl) [R2031]	1460

Source: patent US20150166606A1 (RA PHARMACEUTICALS, published 2015)
